Laboratory results published in patent publication US20250320312A1 (OXITOPE PHARMA B V, published 2025).

Columns and labels:
Assay in all cases: scFv ELISA
BSA = BSA (UniProt P02769)
[1] = biological target: Peptide 1: Biotin-…-[Tyr(PC)]-acid
[2] = biological target: Peptide 5: Biotin-…-[Tyr(PC)]-acid
[3] = biological target: T1, Peptide 4: Biotin-AGGGGSGGGGSGGGGSAAA-Tyr-acid (N-terminal biotin; C-terminal acid; no PC)
T1 construct: control peptide without PC
T1 peptide: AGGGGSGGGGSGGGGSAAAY
Procedure, shortened: (§1)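 Bound scFv was read as OD450 after HRP–anti-V5 detection, TMB development and HCl stop. PPE with BSA was incubated 1 h at RT on BSA-blocked wells coated overnight at 4° C. with peptide, or on streptavidin wells loaded 1 h with biotinylated PC-peptides at 1 μg/mL.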

[4] = biological target: T2, Peptide 8: Biotin-AEAAAKEAAAKEAAAKEAAAKAAA-Tyr-acid (N-terminal biotin; C-terminal acid; no PC)
T2 construct: control peptide without PC
T2 peptide: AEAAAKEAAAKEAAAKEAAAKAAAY
Procedure, shortened: as §1

Sequence of BSA (P02769 25-607 limits assumed): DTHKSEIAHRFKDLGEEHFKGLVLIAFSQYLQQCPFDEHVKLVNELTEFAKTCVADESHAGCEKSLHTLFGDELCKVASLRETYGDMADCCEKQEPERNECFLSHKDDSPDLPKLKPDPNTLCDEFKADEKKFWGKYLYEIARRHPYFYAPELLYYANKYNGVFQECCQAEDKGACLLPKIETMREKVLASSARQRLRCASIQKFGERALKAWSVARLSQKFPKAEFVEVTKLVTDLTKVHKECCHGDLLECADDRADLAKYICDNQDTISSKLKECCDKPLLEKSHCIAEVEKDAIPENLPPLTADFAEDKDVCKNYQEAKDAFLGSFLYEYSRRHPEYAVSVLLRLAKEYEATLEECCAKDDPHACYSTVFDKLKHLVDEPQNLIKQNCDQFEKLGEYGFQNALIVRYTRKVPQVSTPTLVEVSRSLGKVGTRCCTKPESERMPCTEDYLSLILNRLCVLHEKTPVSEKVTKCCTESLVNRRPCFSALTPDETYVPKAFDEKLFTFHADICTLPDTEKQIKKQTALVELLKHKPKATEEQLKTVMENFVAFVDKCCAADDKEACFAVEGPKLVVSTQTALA

Binder | OD450 (BSA) | OD450 [1] | OD450 [2] | OD450 [3] | OD450 [4]
PcOxP_DB01_D04 (scFv, V domains shown, scFv in periplasmic extract) VH: EVQLLESGGGLVQPGGSLRLSCAASGFTFSDFYMEWVRQAPGKGLEWVAASRNKANDYTTEYADSVKGRFTISRDNSKNTLYLQMNSLRAEDTAVYYCARDYYGSSYWYFDVWGQGTLVTVSS VL: DIVMTQSPDSLAVSLGERATINCTASESLWSSKHKVHYLAWYQQKPGQPPKLLIYGASNRYIGVPDRFSGSGSGTDFTLTISSLQAEDVAVYYCAQFYSYPLTFGGGTKVEIK | 0.07 OD450 | 0.45 OD450 | 0.87 OD450 | 0.08 OD450 | 0.06 OD450
PcOxP_DB01_D06 (scFv, V domains shown, scFv in periplasmic extract) VH: EVQLLESGGGLVQPGGSLRLSCAASGFTFSDFYMEWVRQAPGKGLEWVAASRNKANDYTTEYADSVKGRFTISRDNSKNTLYLQMNSLRAEDTAVYYCARDYYGSSYWYFDSWGQGTLVTVSS VL: DIVMTQSPDSLAVSLGERATINCTASESLYSSKHKVHYLAWYQQKPGQPPKLLIYGASNRYIGVPDRFSGSGSGTDFTLTISSLQAEDVAVYYCAQFYIYPLTFGGGTKVEIK | 0.06 OD450 | 0.41 OD450 | 0.69 OD450 | 0.04 OD450 | 0.04 OD450
PcOxP_DB01_F03 (scFv, V domains shown, scFv in periplasmic extract) VH: EVQLLESGGGLVQPGGSLRLSCAASGFTFSDSYMEWVRQAPGKGLEWVAASRNKYNDYTTEYADSVKGRFTISRDNSKNTLYLQMNSLRAEDTAVYYCARDYYGSSYWYFDVWGQGTLVTVSS VL: DIVMTQSPDSLAVSLGERATINCTASESLYSSKHKVHYLAWYQQKPGQPPKLLIYGASNRYIGVPDRFSGSGSGTDFTLTISSLQAEDVAVYYCAQFYSYPLTFGGGTKVEIK | 0.08 OD450 | 0.8 OD450 | 1.41 OD450 | 0.07 OD450 | 0.08 OD450
PcOxP_DB01_E03 (scFv, V domains shown, scFv in periplasmic extract) VH: EVQLLESGGGLVQPGGSLRLSCAASGFGFSDFYMEWVRQAPGKGLEWVGASRNKHNDYTTEYADSVKGRFTISRDNSKNTLYLQMNSLRAEDTAVYYCARDYYGSSYWYFDVWGQGTLVTVSS VL: DIVMTQSPDSLAVSLGERATINCKSSESVYSSKHKKHYLAWYQQKPGQPPKLLIYGASNRYIGVPDRFSGSGSGTDFTLTISSLQAEDVAVYYCAQFYSYPLTFGGGTKVEIK | 0.08 OD450 | 0.86 OD450 | 1.54 OD450 | 0.05 OD450 | 0.05 OD450
PcOxP_DB01_D11 (scFv, V domains shown, scFv in periplasmic extract) VH: EVQLLESGGGLVQPGGSLRLSCAASGFTFSSYYMEWVRQAPGKGLEWVAASRNKANDYTTEYADSVKGRFTISRDNSKNTLYLQMNSLRAEDTAVYYCARDYYGSSYWYNDVWGQGTLVTVSS VL: DIVMTQSPDSLAVSLGERATINCTASESLYSSKWKVHYLAWYQQKPGQPPKLLIYGASNRYIGVPDRFSGSGSGTDFTLTISSLQAEDVAVYYCAQFYSYPLTFGGGTKVEIK | 0.08 OD450 | 1.37 OD450 | 2.09 OD450 | 0.06 OD450 | 0.05 OD450
PcOxP_DB01_D10 (scFv, V domains shown, scFv in periplasmic extract) VH: EVQLLESGGGLVQPGGSLRLSCAASGFTDSDFYMEWVRQAPGKGLEWVAASRNKANDYTTEYADSVKGRFTISRDNSKNTLYLQMNSLRAEDTAVYYCARDYYGSSYWYFDVWGQGTLVTVSS VL: DIVMTQSPDSLAVSLGERATINCTASESLYSSKHKVHYLAWYQQKPGQPPKLLIYGASNRYIGVPDRFSGSGSGTDFTLTISSLQAEDVAVYYCAQFYSYPLTFGGGTKVEIK | 0.06 OD450 | 0.15 OD450 | 0.44 OD450 | 0.05 OD450 | 0.04 OD450
PcOxP_DB01_E09 (scFv, V domains shown, scFv in periplasmic extract) VH: EVQLLESGGGLVQPGGSLRLSCAASGNTFSDFYMEWVRQAPGKGLEWVAASRNKANDYTTEYADSVKGRFTISRDNSKNTLYLQMNSLRAEDTAVYYCARDYYGSSYWYFDVWGQGTLVTVSS VL: DIVMTQSPDSLAVSLGERATINCTASESLYSSKHKVHYLAWYQQKPGQPPKLLIYGASNRYIGVPDRFSGSGSGTDFTLTISSLQAEDVAVYYCANFYSYPLTFGGGTKVEIK | 0.06 OD450 | 0.77 OD450 | 1.26 OD450 | 0.04 OD450 | 0.04 OD450
PcOxP_DB01_E08 (scFv, V domains shown, scFv in periplasmic extract) VH: EVQLLESGGGLVQPGGSLRLSCAASGDTFSDFYMEWVRQAPGKGLEWVAASRNKANAYTTEYADSVKGRFTISRDNSKNTLYLQMNSLRAEDTAVYYCARDYYGQSYWYFDVWGQGTLVTVSS VL: DIVMTQSPDSLAVSLGERATINCTASESLYSSKHKVHYLAWYQQKPGQPPKLLIYGASNRYIGVPDRFSGSGSGTDFTLTISSLQAEDVAVYYCAQFYSYPLTFGGGTKVEIK | 0.06 OD450 | 0.47 OD450 | 0.82 OD450 | 0.05 OD450 | 0.04 OD450
PcOxP_DB01_E02 (scFv, V domains shown, scFv in periplasmic extract) VH: EVQLLESGGGLVQPGGSLRLSCAASGFTFSDYYMEWVRQAPGKGLEWVAASRNKGNDYTTEYADSVKGRFTISRDNSKNTLYLQMNSLRAEDTAVYYCARDYYGSSYWYFDVWGQGTLVTVSS VL: DIVMTQSPDSLAVSLGERATINCTASESLYSSKHKVHYLAWYQQKPGQPPKLLIYGASNRYIGVPDRFSGSGSGTDFTLTISSLQAEDVAVYYCAQFYSYPLTFGGGTKVEIK | 0.07 OD450 | 0.46 OD450 | 1.02 OD450 | 0.05 OD450 | 0.05 OD450
PcOxP_DB01_E01 (scFv, V domains shown, scFv in periplasmic extract) VH: EVQLLESGGGLVQPGGSLRLSCAASGFTSSDFYMEWVRQAPGKGLEWVAASRNKANDYTTEYADSVKGRFTISRDNSKNTLYLQMNSLRAEDTAVYYCARDYYGSSYWYFDVWGQGTLVTVSS VL: DIVMTQSPDSLAVSLGERATINCTASESLYSSKHKVHYLAWYQQKPGQPPKLLIYGASNRVIGVPDRFSGSGSGTDFTLTISSLQAEDVAVYYCANFYSYPLTFGGGTKVEIK | 0.05 OD450 | 0.75 OD450 | 1.48 OD450 | 0.05 OD450 | 0.04 OD450
PcOxP_DB01_F06 (scFv, V domains shown, scFv in periplasmic extract) VH: EVQLLESGGGLVQPGGSLRLSCAASGDTFSDFYMEWVRQAPGKGLEWVAASRNKANDYTTEYADSVKGRFTISRDNSKNTLYLQMNSLRAEDTAVYYCARDYYGSSYWYFDVWGQGTLVTVSS VL: DIVMTQSPDSLAVSLGERATINCKSSQSLYYSSNKKNYLAWYQQKPGQPPKLLIYGASNRYGGVPDRFSGSGSGTDFTLTISSLQAEDVAVYYCAQFYRYPLTFGGGTKVEIK | 0.07 OD450 | 0.12 OD450 | 0.53 OD450 | 0.04 OD450 | 0.04 OD450
PcOxP_DB01_E07 (scFv, V domains shown, scFv in periplasmic extract) VH: EVQLLESGGGLVQPGGSLRLSCAASGFTFSSYYMEWVRQAPGKGLEWVAASRNKANDYTTEYADSVKGRFTISRDNSKNTLYLQMNSLRAEDTAVYYCARDYYGSSYWYFDVWGQGTLVTVSS VL: DIVMTQSPDSLAVSLGERATINCTASESLYSSKHKVDYLAWYQQKPGQPPKLLIYGASNRYIGVPDRFSGSGSGTDFTLTISSLQAEDVAVYYCAQFYSYPLTFGGGTKVEIK | 0.07 OD450 | 0.87 OD450 | 1.51 OD450 | 0.05 OD450 | 0.05 OD450
PcOxP_DB01_F01 (scFv, V domains shown, scFv in periplasmic extract) VH: EVQLLESGGGLVQPGGSLRLSCAASGFPFSDFYMEWVRQAPGKGLEWVAASRNKANDYTTEYADSVKGRFTISRDNSKNTLYLQMNSLRAEDTAVYYCARDYYGSPYWYFDVWGQGTLVTVSS VL: DIVMTQSPDSLAVSLGERATINCTASESVYSSKNKKHYLAWYQQKPGQPPKLLIYGASNRYIGVPDRFSGSGSGTDFTLTISSLQAEDVAVYYCAQFYTYPLTFGGGTKVEIK | 0.08 OD450 | 0.6 OD450 | 1.78 OD450 | 0.05 OD450 | 0.05 OD450
PcOxP_DB01_F07 (scFv, V domains shown, scFv in periplasmic extract) VH: EVQLLESGGGLVQPGGSLRLSCAASGDTFSDFYLEWVRQAPGKGLEWVAASRNKANGYTTEYADSVKGRFTISRDNSKNTLYLQMNSLRAEDTAVYYCARDYYHSSYWYFDVWGQGTLVTVSS VL: DIVMTQSPDSLAVSLGERATINCTASESLYSSKHKVHYLAWYQQKPGQPPKLLIYGASNRYIGVPDRFSGSGSGTDFTLTISSLQAEDVAVYYCAHFYSYPLTFGGGTKVEIK | 0.06 OD450 | 0.31 OD450 | 0.81 OD450 | 0.04 OD450 | 0.04 OD450
PcOxP_DB01_D12 (scFv, V domains shown, scFv in periplasmic extract) VH: EVQLLESGGGLVQPGGSLRLSCAASGFTFSDYYMEWVRQAPGKGLEWVAASRNKYNDYTTEYADSVKGRFTISRDNSKNTLYLQMNSLRAEDTAVYYCARDYYGSSYWYFDVWGQGTLVTVSS VL: DIVMTQSPDSLAVSLGERATINCTASESLYSSKHKVHYLAWYQQKPGQPPKLLIYGASNRYIGVPDRFSGSGSGTDFTLTISSLQAEDVAVYYCAQFYSYPLTFGGGTKVEIK | 0.06 OD450 | 0.85 OD450 | 1.48 OD450 | 0.05 OD450 | 0.05 OD450
PcOxP_DB01_D07 (scFv, V domains shown, scFv in periplasmic extract) VH: EVQLLESGGGLVQPGGSLRLSCAASGFTFSDYYMEWVRQAPGKGLEWVAASRNKANDYTTEYADSVKGRFTISRDNSKNTLYLQMNSLRAEDTAVYYCARDYYGDSYWYFDVWGQGTLVTVSS VL: DIVMTQSPDSLAVSLGERATINCKASQSVLSSKNNVNYLAWYQQKPGQPPKLLIYGASNRYSGVPDRFSGSGSGTDFTLTISSLQAEDVAVYYCAQFYSYPLTFGGGTKVEIK | 0.05 OD450 | 0.14 OD450 | 0.6 OD450 | 0.04 OD450 | 0.04 OD450
